The labels stand for the following.
B1: Gda1p: N41D (protein)
parent chain: MAPIFRNYRFAIGAFAVIMLILLIKTSSIGPPSIARTVTPNASIPKTPEDISILPVNDEPGYLQDSKTEQNYPELADAVKSQTSQTCSEEHKYVIMIDAGSTGSRVHIYKFDVCTSPPTLLDEKFDMLEPGLSSFDTDSVGAANSLDPLLKVAMNYVPIKARSCTPVAVKATAGLRLLGDAKSSKILSAVRDHLEKDYPFPVVEGDGVSIMGGDEEGVFAWITTNYLLGNIGANGPKLPTAAVFDLGGGSTQIVFEPTFPINEKMVDGEHKFDLKFGDENYTLYQFSHLGYGLKEGRNKVNSVLVENALKDGKILKGDNTKTHQLSSPCLPPKVNATNEKVTLESKETYTIDFIGPDEPSGAQCRFLTDEILNKDAQCQSPPCSFNGVHQPSLVRTFKESNDIYIFSYFYDRTRPLGMPLSFTLNELNDLARIVCKGEETWNSVFSGIAGSLDELESDSHFCLDLSFQVSLLHTGYDIPLQRELRTGKKIANKEIGWCLGASLPLLKADNWKCKIQSA
B2: Gda1p: N41D/N280D/N335D (protein)
parent chain: B1 parent chain
B3: Gda1p: N280D (protein)
parent chain: B1 parent chain
B4: Gda1p: N335D (protein)
parent chain: B1 parent chain

This data set is described as follows: DAPI staining after 24 h in sporulation medium. Particulars: glycan lost; control: gda1Δ strain with wild-type GDA1.
On to B1, for which the “other: sporulation efficiency” value was “no change”. Regarding B2, the “other: sporulation efficiency” value is reported as “no change”. Take B3: the “other: sporulation efficiency” value was “no change”. B4: the “other: sporulation efficiency” value was “no change”.

(Values after article PMC4495445.)
